This data set can be described thus: soluble fraction after stress (log2 fold change); higher = more stays soluble; pooled small domains, quantitative proteomics. To be noted: stress: pH 4. The essentials: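 With high-throughput quantitative proteomics, pooled custom libraries of small protein domains were measured after pH 4 stress. Each domain's soluble amount after the stress gives a fold change taken as aggregation propensity. Higher log2 values mean more of the domain stayed soluble.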
Turning to “HMDFSSRLKDERKRLKLSQAQLGEAGGVSKDAQLNYENGSRSPSASYLELIAREGVDVQFLLTGKRS”, the “soluble fraction (log2)” value is -0.0636. On to “HMDFSYTVGDIDEPIDSRGNSVIMLRKLAWGSNAEKLEIRRWIIDIDSERANKGVTFLTEEGPHNLVRV”, for which the “soluble fraction (log2)” value was -0.332. As to “HMDFTISDADFHRLVQFIQQNYGVALSKKRQLISSRLSHSLRELGYKDFRTFLEHLFSTRDPADLELVLNK”, the “soluble fraction (log2)” value was -0.399.

Regarding “HMDFYVILGVDRAASLSDVKRAYRRLARKHHPDINPGDPESDAFFMRVTEAYETLVDPDRRQEYDEHG”, the “soluble fraction (log2)” value is -1.34.

Consider “HMDGEFINLKNRAGTEIEARILNYQNGQVKLERKDGVTFVVSISMFDAKSVIAINHKIAEIIDT”, for which the “soluble fraction (log2)” value was 0.12.

For “HMDGIDALEPLMRRVFEALPQRRSMTIERAAVAAGLDEESVKIALVRLQLEGYVANDERGWHRSKSPH”, the “soluble fraction (log2)” value was -0.000736. Take “HMDGIGLRVRMIREGVGLTQKQLAEHLGMQRTALVQVEAGSRKLSASELIGVARFFNITVEQFLDPEK”: the “soluble fraction (log2)” value is -1.72.

With “HMDGIPVPDVKGTVEAEATATLKNSGFEVTKTQDFSDTVEAGKVISQNPAGGSSAASGSSVTLVISQGPN”, the “soluble fraction (log2)” value was -0.232. Regarding “HMDGISANAVKALIESLIAGEDKRKPLSDQAMSDRLALQGIVLARRTVAKYREELNFPPAHQRKQK”, the “soluble fraction (log2)” value was determined as 0.22. In the case of “HMDGLPYPEAAEEPIAQVARNLGMDATRVSIALQEAKLIFRNLDETLAEIAANNGTTPQVVYDAIRHLEPP” it was -0.372.

“HMDGLTEQQADDILAFISIKGTNAEVLAALENYAGRNETFDTGLSELKVVASNLAAFGMPEENFVVDL”: the “soluble fraction (log2)” value was 0.0229. For “HMDGPGDRLLIAIQENSMTQKKFAQLIGMSPNGLNSIIKGKKRLSRVLAIATERLTGVRADWILQNEQPK” the value was -0.244. Consider “HMDGQPLSERQQEILRWVAEGLSNREIGERLNITPNTVRDHLSEVMRRLEVSNRTSAVSTAFHLGLLP”, for which the “soluble fraction (log2)” value is -0.178. In the case of “HMDGRIRFRHAALHDPDVAARLHDYLTTSLPGVRSARVNSQTGSLLLEYDPEVLDRSTLLDLAARAESLL”, the “soluble fraction (log2)” value is -1.06. In the case of “HMDGRSLSHATLEEIRIRAVQRVEAGESPEVVVKALGFSRPRIYEWLALYREGGLEALRAKPV”, the “soluble fraction (log2)” value was -0.53. In the case of “HMDGSEYAGTVRLGDGTLQPVPRFETSNSETPKYLYLVMDVTHDPPVYILEHESAELKSVLGGLVLIGSYS” it was -0.0612; in that of “HMDGTVRGKTTFQELLDWGVPQERIEAVLGGPIPAPGVVIKDYVTAQGKEFSAVRDALQAEVDAVLK”, -0.229; in that of “HMDGVLLDHLDGFVTTRRGVEAWLEQPTSFNKPSILLVAADGESTRRAIPSIAFGYDFASRHDIPAYDAG”, -1.29. With “HMDGVPPAGSRIRLTVSTQVGDKEFEGTLVPPAGVDLLTLKLANGYNLSHSIADVREVVLIEEGLQGEEP”, the “soluble fraction (log2)” value was -2.05. In the case of “HMDGVSLLFKLMETLPEQQKTILHLRDVEQLEFAEIAKITNTSQANVRVALSRARKKIKDLLLKQY” it was -1.31; in that of “HMDGVYLKSLKQTEQHIHWSGYAQSNAWVSTLMRNLDASPWFESPLLIEIKAATINNSRSNEFDLNVRL”, 0.102; in that of “HMDGYTVYTNWGSDTNVARSDQQIQSQIPQLSGATIVGVWTKPIATGGTSYKIRYRTNSGAFTEIDVDQ”, -0.0816. Turning to “HMDHKTKLQEVLQKSGDVFIEYRLIKEEGPAHERIFWIEVYVDDQLIGTGQGKSKKLAEQAAAENALAALE”, the “soluble fraction (log2)” value is -1.15. Consider “HMDIEHREMKLQKLVITADSPLVGKTLKESNVRQRYNFMVVGVEEGQKNLTMINPNRRFEVGDIVWVVGEE”, for which the “soluble fraction (log2)” value is -0.204. For “HMDIFGREAEVEQILQEVRFGDDPHYRLSIGILPVTGHAGAGKTALVRFIFHHEVARAEFTVRMWVHV” the value was -0.998; for “HMDIGKNIQTIRYANKLTQDQVIAKLNLMGISMSKSTYAKLETNRMNIKVSELVALAKIFHTDINAF”, -0.274; for “HMDIGTYTVTASALNIRQYPTASSAKTGSYPNGSIVTIYEYLTDGSWGRTDDGWISMNYVSRRY”, -1.37.

Values taken from the domain aggregation screens of Martell et al. (2025).
